B1: Dcp1 from S. pombe, residues 1-127 (natural protein, UniProt Q9P805 1-127, looked up)
chain: MEDENILRNAVNLQVLKFHYPEIESIIDIASHVAVYQFDVGSQKWLKTSIEGTFFLVKDQRARVGYVILNRNSPENLYLFINHPSNVHLVDRYLIHRTENQHVVGLWMFDPNDMSRIFNIVKESLLR
notes: Dcp1, S. pombe, UniProt Q9P805, residues 1-127; also called internal ID 48; source: E. coli BL21(DE3) CodonPlus-RIL, purified (Ni-NTA, TEV cleavage, second Ni-NTA, SEC)

What all share (assay): NMR spectra of a prepared complex; Dcp1 and Dcp2 expressed separately, complex prepared with one partner NMR active; 303 K; 125 mM NaCl, 25 mM HEPES, pH 7.3, 1 mM DTT; 100-500 uM protein
Conditions in all cases: both partners purified

Assay [1] deals with T1, Dcp2 from S. pombe, regulatory and catalytic domains, residues 1-243 (S. pombe, UniProt O13828 1-243).
T1 construct: Dcp2, S. pombe, residues 1-243 (NRD 1-95 and catalytic NUDIX domain 96-243); also called Dcp2-NRD-CTD; internal ID 223; source: E. coli BL21(DE3) CodonPlus-RIL, purified (Ni-NTA, TEV cleavage, second Ni-NTA, SEC)
T1 sequence (looked up): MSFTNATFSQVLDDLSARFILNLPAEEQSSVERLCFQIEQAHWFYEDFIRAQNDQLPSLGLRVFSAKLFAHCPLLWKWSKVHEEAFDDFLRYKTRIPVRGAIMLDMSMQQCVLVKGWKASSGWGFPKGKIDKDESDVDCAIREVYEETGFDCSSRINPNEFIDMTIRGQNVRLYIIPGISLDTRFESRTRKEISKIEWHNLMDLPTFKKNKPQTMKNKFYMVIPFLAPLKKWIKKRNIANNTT

For assay [2], the target named is T2, Dcp2 from S. pombe, regulatory and catalytic domains, residues 1-243, 5-fluorotryptophan labeled (S. pombe, UniProt O13828 1-243, the seven tryptophan residues are replaced with 5-fluorotryptophan).
T2 construct: Dcp2, S. pombe, residues 1-243 (NRD 1-95 and catalytic NUDIX domain 96-243); also used with isoleucine and methionine methyl 13C labeling; also called 5-fluorotryptophan labeled Dcp2-NRD-CTD; source: E. coli BL21(DE3) CodonPlus-RIL with 5-fluoroindole added, purified (Ni-NTA, TEV cleavage, second Ni-NTA, SEC)
T2 sequence (looked up): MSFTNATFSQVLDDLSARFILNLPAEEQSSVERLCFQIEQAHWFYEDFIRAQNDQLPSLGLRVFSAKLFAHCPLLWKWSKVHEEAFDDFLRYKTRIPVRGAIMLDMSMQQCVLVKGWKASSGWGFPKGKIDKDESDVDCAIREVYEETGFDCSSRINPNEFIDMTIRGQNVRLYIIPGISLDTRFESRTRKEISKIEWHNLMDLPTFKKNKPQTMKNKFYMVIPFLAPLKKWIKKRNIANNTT

The target in assay [3] is T3, Dcp1 from S. pombe, residues 1-127, 15N and 5-fluorotryptophan labeled (S. pombe, UniProt Q9P805 1-127, 5-fluorotryptophan at Trp 45 and 107).
T3 construct: Dcp1, S. pombe, UniProt Q9P805, residues 1-127; the tryptophans are replaced with 5-fluorotryptophan; also called 5-fluorotryptophan labeled Dcp1; source: E. coli BL21(DE3) CodonPlus-RIL with 5-fluoroindole added, purified (Ni-NTA, TEV cleavage, second Ni-NTA, SEC)
T3 sequence (looked up): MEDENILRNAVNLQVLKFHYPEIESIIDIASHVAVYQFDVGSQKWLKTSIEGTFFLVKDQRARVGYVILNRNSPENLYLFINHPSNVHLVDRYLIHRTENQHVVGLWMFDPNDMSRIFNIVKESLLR

In assay [4] the target is B1.

In the case of B1, the binding result in assay [1] and in assay [2] was “binds” each time.

B2: Dcp2 from S. pombe, N-terminal regulatory domain, residues 1-95 (domain or fragment, UniProt O13828 1-95, looked up)
chain: MSFTNATFSQVLDDLSARFILNLPAEEQSSVERLCFQIEQAHWFYEDFIRAQNDQLPSLGLRVFSAKLFAHCPLLWKWSKVHEEAFDDFLRYKTR
notes: Dcp2, S. pombe, residues 1-95 (N-terminal regulatory domain); Used unlabeled or 15N labeled, depending on the sample; also called Dcp2 NRD; NRD of Dcp2; source: E. coli BL21(DE3) CodonPlus-RIL, purified (Ni-NTA, TEV cleavage, second Ni-NTA, SEC)
On to B2, for which the binding result in assay [3] and in assay [4] was “binds” throughout.

B3: Dcp2 from S. pombe, N-terminal regulatory domain, residues 1-95, 5-fluorotryptophan labeled (domain or fragment, UniProt O13828 1-95, looked up)
chain: MSFTNATFSQVLDDLSARFILNLPAEEQSSVERLCFQIEQAHWFYEDFIRAQNDQLPSLGLRVFSAKLFAHCPLLWKWSKVHEEAFDDFLRYKTR
modifications: 5-fluorotryptophan at the three tryptophan residues (W43 among them)
notes: Dcp2, S. pombe, residues 1-95 (N-terminal regulatory domain); also called 5-fluorotryptophan labeled Dcp2 NRD; source: E. coli BL21(DE3) CodonPlus-RIL with 5-fluoroindole added, purified (Ni-NTA, TEV cleavage, second Ni-NTA, SEC)
For B3, the binding result in assay [4] was “binds”.

B4: Dcp2 from S. pombe, residues 1-95, W43A assignment mutant (domain or fragment, UniProt O13828 1-95, looked up)
chain: MSFTNATFSQVLDDLSARFILNLPAEEQSSVERLCFQIEQAHAFYEDFIRAQNDQLPSLGLRVFSAKLFAHCPLLWKWSKVHEEAFDDFLRYKTR
notes: Dcp2, S. pombe, residues 1-95 with W43A; also called Dcp2 NRD W43A; internal ID 1070; source: E. coli BL21(DE3) CodonPlus-RIL, purified (Ni-NTA, TEV cleavage, second Ni-NTA, SEC)
On to B4, for which, in assay [4], the binding result is on record as “binds”.
